± gives the standard deviation of the averaged measurements.
Experiment: total protein half-life in vivo (active degradation + dilution); higher = more stable protein
[1] = E. coli NCM3722 delta-clpP delta-lon delta-hslV, growth: N-lim chemostat, doubling time 6 h
[2] = E. coli NCM3722 delta-clpP, growth: N-lim chemostat, doubling time 6 h
[3] = E. coli NCM3722 delta-hslV, growth: N-lim chemostat, doubling time 6 h
[4] = E. coli NCM3722 delta-lon, growth: N-lim chemostat, doubling time 6 h
[5] = E. coli NCM3722 delta-smpB, growth: N-lim chemostat, doubling time 6 h
[6] = wild type E. coli NCM3722, growth: C-lim chemostat, doubling time 3 h
[7] = wild type E. coli NCM3722, growth: C-lim chemostat, doubling time 6 h
[8] = wild type E. coli NCM3722, growth: C-lim chemostat, doubling time 12 h
[9] = wild type E. coli NCM3722, growth: N-lim chemostat, doubling time 6 h
[10] = wild type E. coli NCM3722, growth: N-lim chemostat, doubling time 12 h
[11] = wild type E. coli NCM3722, growth: P-lim chemostat, doubling time 6 h
[12] = wild type E. coli NCM3722, growth: P-lim chemostat, doubling time 12 h

| Sequence | total protein half-life in vivo [1] | total protein half-life in vivo [2] | total protein half-life in vivo [3] | total protein half-life in vivo [4] | total protein half-life in vivo [5] | total protein half-life in vivo [6] | total protein half-life in vivo [7] | total protein half-life in vivo [8] | total protein half-life in vivo [9] | total protein half-life in vivo [10] | total protein half-life in vivo [11] | total protein half-life in vivo [12] |
| --- | --- | --- | --- | --- | --- | --- | --- | --- | --- | --- | --- | --- |
| MQFSKMHGLGNDFMVVDAVTQNVFFSPELIRRLADRHLGVGFDQLLVVEPPYDPELDFHYRIFNADGSEVAQCGNGARCFARFVRLKGLTNKRDIRVSTANGRMVLTVTDDDLVRVNMGEPNFEPSAVPFRANKAEKTYIMRAAEQTILCGVVSMGNPHCVIQVDDVDTAAVETLGPVLESHERFPERANIGFMQVVKREHIRLRVYERGAGETQACGSGACAAVAVGIQQGLLAEEVRVELPGGRLDIAWKGPGHPLYMTGPAVHVYDGFIHL [P0A6K1] | 6.36 ± 1.1 h | 6.48 ± 2.1 h | 5.87 ± 0.47 h | 5.47 ± 0.1 h | 5.32 ± 0.55 h | 3.44 ± 0.073 h | 5.92 ± 0.45 h | 9.56 ± 0.77 h | 5.53 ± 0.74 h | 9.83 ± 0.98 h | 5.42 ± 0.38 h | 11.859 ± 0.004 h |
| MQGKALQDFVIDKIDDLKGQDIIALDVQGKSSITDCMIICTGTSSRHVMSIADHVVQESRAAGLLPLGVEGENSADWIVVDLGDVIVHVMQEESRRLYELEKLWS [P0AAT6] | 6.28 ± 1.2 h | 3.63 ± 1.7 h | 2.21 ± 0.063 h | 5.5 ± 0.84 h | 2.65 ± 0.19 h | 2.6 ± 0.59 h | 3.58 h | > 16 h | 2.72 h | 3.51 ± 0.17 h | 2.2 h | 4.01 h |
| MQGTKIRLLAGGLLMMATAGYVQADALQPDPAWQQGTLSNGLQWQVLTTPQRPSDRVEIRLLVNTGSLAESTQQSGYSHAIPRIALTQSGGLDAAQARSLWQQGIDPKRPMPPVIVSYDTTLFNLSLPNNRNDLLKEALSYLANATGKLTITPETINHALQSQDMVATWPADTKEGWWRYRLKGSTLLGHDPADPLKQPVEAEKIKDFYQKWYTPDAMTLLVVGNVDARSVVDQINKTFGELKGKRETPAPVPTLSPLRAEAVSIMTDAVRQDRLSIMWDTPWQPIRESAALLRYWRADLAREALFWHVQQALSASNSKDIGLGFDCRVLYLRAQCAINIESPNDKLNSNLNLVARELAKVRDKGLPEEEFNALVAQKKLELQKLFAAYARADTDILMGQRMRSLQNQVVDIAPEQYQKLRQDFLNSLTVEMLNQDLRQQLSNDMALILLQPKGEPEFNMKALQAVWDQIMAPSTAAATTSVATDDVHPEVTDIPPAQ | 5.67 ± 0.23 h | 6.56 ± 1.4 h | 6.33 ± 0.55 h |  | 6.16 ± 0.15 h | 3.02 ± 0.35 h | 6.42 ± 0.41 h | 9.83 ± 0.8 h | 6.08 ± 0.24 h | 12.55 ± 0.063 h | 6.3 ± 0.32 h | 14.2 ± 0.33 h |
| MQHETKMENQSWLKKLARRLGPGHVVNLCFIVVLLFSTLLTWREVVVLEDAYISSQRNHLENVANALDKHLQYNVDKLIFLRNGMREALVAPLDFTSLRDAVTEFEQHRDEHAWKIELNRRRTLPVNGVSDALVSEGNLLSRENESLDNEITAALEVGYLLRLAHNSSSMVEQAMYVSRAGFYVSTQPTLFTRNVPTRYYGYVTQPWFIGHSQRENRHRAVRWFTSQPEHASNTEPQVTVSVPVDSNNYWYGVLGMSIPVRTMQQFLRNAIDKNLDGEYQLYDSKLRFLTSSNPDHPTGNIFDPRELALLAQAMEHDTRGGIRMDSRYVSWERLDHFDGVLVRVHTLSEGVRGDFGSISIALTLLWALFTTMLLISWYVIRRMVSNMYVLQSSLQWQAWHDTLTRLYNRGALFEKARPLAKLCQTHQHPFSVIQVDLDHFKAINDRFGHQAGDRVLSHAAGLISSSLRAQDVAGRVGGEEFCVILPGASLTEAAEVAERIRLKLNEKEMLIAKSTTIRISASLGVSSSEETGDYDFEQLQSLADRRLYLAKQAGRNRVFASDNA |  | 7.2 ± 0.57 h | 6.48 ± 0.5 h |  | 5.94 ± 0.3 h | 3.34 ± 0.062 h | 6.39 ± 0.087 h | 12.3 ± 0.47 h | 6.01 ± 0.53 h |  | 6.56 ± 0.22 h | 12.2 ± 0.31 h |
| MQILADLLNTIPAIDSTAMSRAQRHIDGLLKPVGSLGKLEVLAIQLAGMPGLNGIPHVGKKAVLVMCADHGVWEEGVAISPKEVTAIQAENMTRGTTGVCVLAEQAGANVHVIDVGIDTAEPIPGLINMRVARGSGNIASAPAMSRRQAEKLLLDVICYTQELAKNGVTLFGVGELGMANTTPAAAIVSTITGRDPEEVVGIGANLPTDKLANKIDVVRRAITLNQPNPQDGVDVLAKVGGFDLVGIAGVMLGAASCGLPVLLDGFLSYAAALAACQMSPAIKPYLIPSHLSAEKGARIALSHLGLEPYLNMEMRLGEGSGAALAMPIIEAACAIYNNMGELAASNIVLPGNTTSDLNS | 4.974 ± 0.0055 h | 4.84 ± 1.1 h | 3.39 ± 0.091 h |  | 3.17 ± 0.12 h | 3 ± 0.2 h | 4.63 ± 0.68 h | 8.1 ± 0.064 h | 3.27 ± 0.16 h | 5.18 ± 0.075 h | 4.994 ± 0.018 h | 9.91 ± 0.96 h |
| MQILFNDQAMQCAAGQTVHELLEQLDQRQAGAALAINQQIVPREQWAQHIVQDGDQILLFQVIAGG | 2.75 h |  |  |  |  |  |  | 4.47 h | 1.3 h |  | 3.24 h | 5.24 ± 0.77 h |
| MQILLANPRGFCAGVDRAISIVENALAIYGAPIYVRHEVVHNRYVVDSLRERGAIFIEQISEVPDGAILIFSAHGVSQAVRNEAKSRDLTVFDATCPLVTKVHMEVARASRRGEESILIGHAGHPEVEGTMGQYSNPEGGMYLVESPDDVWKLTVKNEEKLSFMTQTTLSVDDTSDVIDALRKRFPKIVGPRKDDICYATTNRQEAVRALAEQAEVVLVVGSKNSSNSNRLAELAQRMGKRAFLIDDAKDIQEEWVKEVKCVGVTAGASAPDILVQNVVARLQQLGGGEAIPLEGREENIVFEVPKELRVDIREVD | 5.14 ± 0.44 h | 3.68 ± 0.91 h | 2.78 ± 0.23 h | 3.1 ± 0.29 h | 2.44 ± 0.24 h | 2.5 ± 0.044 h | 3.72 ± 0.34 h | 5.14 ± 0.29 h | 2.69 ± 0.3 h | 3.69 ± 0.062 h | 2.89 ± 0.034 h | 5.25 ± 0.3 h |
| MQKEQLSALMDGETLDSELLNELAHNPEMQKTWESYHLIRDSMRGDTPEVLHFDISSRVMAAIEEEPVRQPATLIPEAQPAPHQWQKMPFWQKVRPWAAQLTQMGVAACVSLAVIVGVQHYNGQSETSQQPETPVFNTLPMMGKASPVSLGVPSEATANNGQQQQVQEQRRRINAMLQDYELQRRLHSEQLQFEQAQTQQAAVQVPGIQTLGTQSQ [P0AFX7] |  |  |  |  |  |  | 0.455 ± 0.09 h | 0.469 h | 0.895 ± 0.046 h | 0.953 ± 0.18 h | 0.801 h | 1.03 ± 0.45 h |
| MQKIVIVANGAPYGSESLFNSLRLAIALREQESNLDLRLFLMSDAVTAGLRGQKPGEGYNIQQMLEILTAQNVPVKLCKTCTDGRGISTLPLIDGVEIGTLVELAQWTLSADKVLTF [P0AB52] | 5.73 ± 0.71 h | 5.32 ± 0.28 h | 4.94 ± 1.6 h | 5.96 ± 0.57 h | 4.81 ± 0.086 h | 2.64 ± 0.25 h | 6.4 ± 1.1 h | 13.2 ± 0.93 h | 5.55 ± 0.19 h | 10.1 ± 0.94 h | 5.43 h | 12.5 ± 1.7 h |
